Reference: the nanobody polyreactivity screen of Harvey et al. (2022)

Experiment: yeast display, Sf9 membrane polyspecificity reagent, FACS + sequencing; frameworks hold sequencing errors
Summary of the method: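 After 36–48 hours of galactose induction, yeast (Saccharomyces cerevisiae BJ5465) displaying a synthetic nanobody library were stained at 4 °C for 1 hour with 10% biotinylated, detergent-solubilized Sf9 membrane reagent. Streptavidin microbeads enriched the stained cells before FACS sorting into low and high (top ~1%) gates on anti-HA and streptavidin fluorescence. Each clone's polyreactivity label reflects its gate of origin.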

Row | Sequence | polyreactivity (PSR sort gate)
1 | QVQHVESGGGLVQAGGSLRLSCAASGSIFPHYAMGWYRQAPGKERELVAAISYSGGRTYYADSVKGRFTISRDNAKNTVYLQMNSLKPEDTAVYYCAKPERVLYHGDYWGQGTQVTVSS | low polyreactivity
2 | QVHLVESGGGLVQAGGSLRLICAASGRIFTKYAMGCYRQAPGKEREVVAAISYRGGSTYYADSVKGRFTISRDNAKNTVYLQMNILKPEDTAVYYCAAYATSTRYCYWGQGTQVTVSS | high polyreactivity
3 | QVQLVESGGGLVQAGGSLRLSCAASGGTLVRYAMGWYRQAPGKERELVAAIDRDGDSTYYADSVKGRFTISRDNAKNTVYLQMNSLKPEDTAVYYCNADEIRQTDGYDYWGQGTQVTVSS | high polyreactivity
4 | QVQLVESGGGLVQAGGTLRLSCAASGFTYKYYGMGWYRQAPGKERELVAAITSSGSTYYADSVKGRFTISRDNAKNTVYLQMNSLKPEDTAVYYCAAEGQRWQRWRYNYWGQGTQVTVSS | high polyreactivity
5 | QVQLVESGGGLVQAGGSLRLSSAASGFIFFRYARGWYRQEPGKEREFVAAISWSGGRTYYADSVKGRFTISRDNAKNTVYLQMNSLKPEDTAVYYCAAYPSYWGYGYPGHDYWGQGTQVTVSS | high polyreactivity
6 | QVQLVESGGGLVQAGGSLRLICAASGSTFWYYSMGWYRQAPGKERELVAAITRAGSTNYADSVKGRFTISRDNAKNTVYLQMNSLKPEDTAVYYCAADQYHYWYYLGGYDYWGQGTQVTVSS | high polyreactivity
7 | QVQLQESGGGPVLAGGSLRLSCAASGTIFVRLDMGWYRQAPGKEREFVATIGSGSSTYYADSVKGSFTISRDNVKNTVYLQMNSLKPEDTAVYYCAVSAAEQSRHYYWDQGTQVTVSS | low polyreactivity
8 | QVQLVESGGGLVQAGGSLRLSCAASGRTFFIYAMGWYRQAPGKERELVAAISNGGSTNYADSVKGRFTISRDYAKNTVYLQMISLKPEDTAVYYCAAQYIGNLRGVFHYEFDWGQGTQVTVSS | high polyreactivity
9 | QVQLVESGGGLVQAGGSLRLSCAASGRIFVIYAMGWYRQAPGKERELVAAISYSGGSTYYADSVKGRFTISRDNAKNTVYLQMNSLKPEDTAVYYCAARVRGDYGHKYYQYDYWGQGTQVTVSS | low polyreactivity
10 | QVQLVESGGGLVQAGGSLRLSCAASGSIFTWYAMGWYRLAPGIDRELVAAITRGGSTYADSVTGRFTISRDNAKNTVYLQMNSLKPEDTAVYYCNAVYGVYDFNYWGQGTQVTVSS | low polyreactivity
11 | QVQLVESGGGLVQAGGSLRLSCAAYGLTLGRNAMGWYRQAPGKERELVAAITQSGGSTYYADSVKGRFTISRDNAKITVYLQMNSLKPEDTAVFYGAAQYSWGHYYTFDYWGQGTQVTVSS | low polyreactivity
12 | QVQLVESGGGLVQAGGSLRLSCAASGYIFGYYVMGWYRQAPGKERELVAAITGRGGSTYYADSVKGRFTISRDNAKNTVYLQMISLKPEDTAVYDCAADATSYPYDPWHLYEIWEYYYWGQGTQVTVSS | low polyreactivity
13 | QVQHVESAGALVQAGGSLRLSCAASRRTFYRYPMGWYRQAPGKERELVAAISSNGGSTYYADSVKGRFTISRDNGKNTVYLQMNSLKPEDTAVYYCYYYNSRLFDYWGQGTQVTVSS | high polyreactivity
14 | QVQLVESGGGLVQARGSLRLICAASGYIFRGYAMGWYRQAPGKERELVASISRTGVSTYYADSVKGRFTISRDNAKNTVYLQMNSLKPEDTAVYYCAADYYYWYYKSGYDYWGQGTQVTVSS | high polyreactivity
15 | QVQLVESGGGLVQAGGSLRLSCAASGFIFAEYAMGWYRQAPGKERELVAAITWSGVTTYYADSVKGRFTISRDNAKNTVYLLMNSLKPEDTAVYYCAAGRTRRKFDYWGQGTQVTVSS | low polyreactivity
16 | QVQLVESGGGLVQAGGRLRLSCAASGRTFYTNTMGWYRQAPGKERELVAAISYSGSSTYYADSVKGRFTISRDNAKNTGYLQINSLKPEDTAVYYCNAVRYYRYYYWGQGTQVTVSS | low polyreactivity
17 | QVQLVESGGGLVQAGGSLRLSCAASGSTFVYYAMGWYRQAPGKERELVADISWSGGDTYYADSVKGRFTISRDNAKNTVYLQMNSLKPEDTAVYYCAAEWSTPSYVGFADGFEYWGQGTQVTVSS | low polyreactivity
18 | QVQLVESGGGFVQAGGSLRLSCAASGSTFGTYAMGWYRQAPGKERELVAAISWSGGSTYYADSVKGRFTISRDNAKNTVYLQMNSLKPEDTAVYYCNATSSTPPGMDSWGQGTQVTVSS | low polyreactivity
19 | QVQLVESGGGLVQAGGSLRLICAASGRTFVPYAMGWYRQAPGKERELVAAINSGGSTYYADSVKGRFTSSRDNAKNTVYLQMNSLKPADTAVYDCAAEYWNSRFSYAYGYWGQGTQVTVSS | high polyreactivity
20 | QVQLVESGGGLVQAGGSLRLSCAASGRTFYSYAMGWYRQAPGKERDLVASITRAGSTYYADSVKGRFTISRDNAKNTVYLQMNSLKPEDTAVYYCAATYRSDRRYGSHYRVDYWGQGTQVTVSS | high polyreactivity
21 | QVQLVESGGCLVQAGGSLRLSCAASGRTFYFYAMGWYRQAPGKERELVASISWSGGRTNYADSVKGRFTSSRDNAKNTVYLQMNSLKPEDTAVHYCAARYVERHTDYYYWGQGTQVTVSS | low polyreactivity

Row | Sequence | polyreactivity (PSR sort gate)
22 | QVQLVESGGGLVQAGGSLRLSCAASGSTFSTYAMGWYRPAPGKERELVAAISRRGTNTYYADSVKGRFTISRDNAKNTVYLQMNSLKPEDTAVYYCAARSRSLRVYNRVYEVNEMDYWGQGTQVTVSS | low polyreactivity
23 | QVQLVESGGGLVQAGGSLRLSCAASGFILLDYAMGWYRQAPGKERELVAAISWSGARTYYADSVKGRFTISRDNAKNTVYLQMNSLKPEDTAVYYCAAKGQRGYWWGFDYWGQGTQVTVSS | low polyreactivity
24 | QVQLVESGGGLVQAGGSLRLSCAASGPIFRGYAMGWYRQAPGKERELVARITSGGRTYYADSVKGRFTISRDNAKNTVYLQMNSLKPEDTAVYYCATVGRGYDERHNYWGQGTQVTVSS | high polyreactivity
25 | QVQLVESGGGLVQAGGSLRLSCAASGSTIYGYAMGWYRQAPGKERELVAAISISGGGTYYADSVKGRFTISRDNAKNTVYLQMNSLKPEDTAVYYCARRYFWGQGTQVTVSS | low polyreactivity
26 | QVQLVDSGGGLVQAGGSLRLTCAASGFIFGYNTMGWYRQAPGKERELVAAIDSGGSTNYADSVKGRFTISRDNAKNTDYLQMNSLKPEDTAVYYCARESDWWREFPYDYWGQGTQVNVSS | low polyreactivity
27 | QVQLVESGGGLVQAGGSLRLSCAASGGIFPVNAMGWYRQAPGKERELVAAITWRGGRTYYADSVKGRFTISRDNSKNTVYLQMNSLKPEDTAVYYCAAYKGSSKYDYWGQGTQVTVSS | high polyreactivity
28 | QVQLVESGGGLVQAGGSLRLSCAASGSISVWYVMGWYRQAPGKERELVAAITRSGGSTFYADSVKGRFTISRDNAKNTVYLQMNSLKPEDTAVYYCAADGGVAWGYGYWGQGTQVTVSS | low polyreactivity
29 | QVQLVESGGALLQAGGSLRLSCAASGRTFPGYGMGWYRQAPGKERELVAVITSNGGITYYADSVKGRFTISRDNAKNTVYLQMNSLKPEDTAVYYCAAYEIYYEFDSWGQGTQVTVSS | low polyreactivity
30 | QVQLVESGGGLVQAGGSLRLSCAASGSTFVANTMGWYRQAPGKERELVATIRRSGGSTYYADSVKGRFTISRDNAKNTVYLQMNSLKPEDTAVYYCAKDSRWPSYRGMDYWGQGTQVTVSS | low polyreactivity
31 | QVQLAESGGGLVQAGGSLRLSCAASGSNFSPNAMGWYRQAPGKERELVAAITAGARTNYADSVKGRFTISRDNSKNTFYLQMNSLKPEDTAVYYCNAESYYDYNYWGQGTQVTVSS | low polyreactivity
32 | QVQLVESGGGLVQAGGSLRLSCAASGRIFWDNAMGWYRQAAGKEWELVAAISDSVVITYYADSVKGRFTISRDNAKNTVYLQMNSLKPEDTAVYYCAADKRGTVYLSSLWMDYWGQGTQVTVSS | low polyreactivity
33 | QVQLVESGGGLVQAGGSLRLSCAASGITLGGNGMGWYRQAPGKERELVAAISQSGGTTYYADSVKGRFTISRDNAKNTVYLQMNSLKPEDTAVYYCNALWRGHGRYNYWGQGTQVTVSS | low polyreactivity
34 | QVQLVDSGGGLVQAGGSLRLSCAASGRIFSRYAMGGYRQAPGKERQLVAAITIGGRTNYADSVKGRFTFSRDNAKNTVYLQMNSLKPEDSAVYYCAVVLYTRYPPRVRYYYWGQGTQVTVSW | high polyreactivity
35 | QVQLVESGGGLVQAGGSLRLSCAASGSTLSRYAMGWYRQAPGKERELVAAISRRGGSTFYADSVKGRFTISRDNAKNTVYLQRNSLKPEDTAVYYCAALSNHGYYIRMDYWGQGTQVTVSS | high polyreactivity
36 | QVQLVESGGGLVQAGGSLRLSCAASGRIFGYYVMGWYRQAPGKERELVAAINYDGGSTYYADSVKGRFTISRDNAKNTVYLQMNSLKPEDTAVYYCAAAIGNSEYGWRYDYWGQGTQVTVSS | low polyreactivity
37 | QVQLVESGGGLVQAGGSLRLSCAASGNTFTSYAMGWYRQAPGKERELVAAISASGSSTYYADSVKGRFTISRDNAKNTVYLQMNSLKPEDTAVYYCNAVKYRVESSYDYWGQGTQVTVSS | low polyreactivity
38 | QVQLVESGGGLVHAGGSLRLSCAASGRTFRAYAMGWYRQAPRKERDLVAAISGGGGSTYYADSVKGRFTISRDNAKNTVYLQMNRLKPEYTAVYYCAVKGTQKLAKYNYWGQGTQVTVSS | high polyreactivity
39 | QHQLVESGGGLVQAGGSLRLSCAASGRTFYWNAMGWYRQAPGKERELVAGISNGGTTTYYADSVKGRFTISRDNAKNTVYLQMNSLKPEDTAVYYCAADIWYFDYDYWGQGTQVNVSS | high polyreactivity
40 | QVQLVESGAGLVQAGGSLRLSCAASGRIFPDNTMGWYRQAHGKERELVAVITYSGGSTYYADSVKGRFTISRDNAKNTVYLQMNSLKPEDTAVYYCAADFGFQLKMYYWGQGTQVTVSS | low polyreactivity
41 | QVQLVESGGGLVQAGGSLRLSCAASGCIFYINTMGWYRQAPGKERELVAAISQSGVGTSYADSVKGRFTISRDNAKNTVYLQMNSLIPEDTAVYYCATDFARSDVVERFDYWGQGTQVTVSS | low polyreactivity
